Assay results reported in publication PMC8694150, “Characterization of NucPNP and NucV involved in the early steps of nucleocidin biosynthesis in Streptomyces calvus” (RSC Advances, 2021).
Blank lines part the entries; values can stand above or below the molecule they belong to.

Tests used:
ScAPRT = target: T1, ScAPRT (Streptomyces calvus, UniProt A0A514K045); assay: HPLC of AMP formation, Michaelis-Menten fit; assay type: biochemical; details: 10 mM MgCl2, 50 mM Tris-HCl, 150 mM NaCl, pH 7.5, room temperature, apparent
T1 construct: gene apt; N-terminal 6-His tag kept; expressed in E. coli BL21(DE3); housekeeping APRT, not NucV
T1 sequence (A0A514K045 entry or part of it): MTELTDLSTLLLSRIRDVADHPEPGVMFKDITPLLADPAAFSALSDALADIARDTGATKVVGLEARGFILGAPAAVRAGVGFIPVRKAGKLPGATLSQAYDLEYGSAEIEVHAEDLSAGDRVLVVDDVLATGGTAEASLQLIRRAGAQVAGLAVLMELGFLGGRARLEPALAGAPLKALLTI
Source text: HPLC of AMP formation, Michaelis-Menten fit on ScAPRT

NucV = target: T2, NucV (Streptomyces calvus, UniProt A0A142C6V8); assay: HPLC of AMP formation, Michaelis-Menten fit; assay type: biochemical; details: 10 mM MgCl2, 50 mM Tris-HCl, 150 mM NaCl, pH 7.5, room temperature, apparent
T2 construct: gene apt; N-terminal 6-His tag kept; expressed in E. coli BL21(DE3)
T2 sequence (A0A142C6V8 entry or part of it): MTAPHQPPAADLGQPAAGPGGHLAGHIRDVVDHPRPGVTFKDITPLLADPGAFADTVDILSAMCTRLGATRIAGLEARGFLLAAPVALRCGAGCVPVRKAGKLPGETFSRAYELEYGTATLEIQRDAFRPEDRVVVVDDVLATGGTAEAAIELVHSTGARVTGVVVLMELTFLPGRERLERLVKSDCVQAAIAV
Source text: HPLC of AMP formation, Michaelis-Menten fit on NucV

[1] = system: T3, CSC[C@H]1O[C@@H](n2cnc3c(N)ncnc32)[C@H](O)[C@@H]1O; assay: purified protein; assay type: biochemical, Streptomyces calvus; details: 10 mM phosphate, 50 mM Tris-HCl, 150 mM NaCl, pH 7.5, room temperature, apparent
T3 construct: expressed in E. coli SHuffle T7 Express lysY; amylose then Ni-NTA
Source text: (§1) HPLC of adenine formation, Michaelis-Menten fit on MBP-NucPNP

[2] = system: T4, Nc1ncnc2c1ncn2[C@@H]1O[C@H](CO)[C@@H](O)[C@H]1O; assay: purified protein; assay type: biochemical, Streptomyces calvus; details: 10 mM phosphate, 50 mM Tris-HCl, 150 mM NaCl, pH 7.5, room temperature, apparent
T4 construct: expressed in E. coli SHuffle T7 Express lysY; amylose then Ni-NTA
Source text: as §1

[3] = substrate: O=P(O)(O)OC[C@H]1O[C@H](OP(=O)(O)OP(=O)(O)O)[C@H](O)[C@@H]1O; assay: HPLC of AMP formation, Michaelis-Menten fit; assay type: biochemical, Escherichia coli; details: 500 μM adenine, 10 mM MgCl2, 50 mM Tris-HCl, 150 mM NaCl, pH 7.5, room temperature, apparent
purified protein = substrate: Nc1ncnc2nc[nH]c12; assay: purified protein; details: 500 μM PRPP, 10 mM MgCl2, 50 mM Tris-HCl, 150 mM NaCl, pH 7.5, room temperature, apparent

Molecule: MBP-NucPNP (Streptomyces calvus)
- Km [1]: 43.5 ± 4.1 µM
- kcat [1]: 0.15 ± 0.01 s⁻¹
- kcat/Km [1]: 3400 M⁻¹ s⁻¹
- Km [2]: 90.3 ± 8.2 µM
- kcat [2]: 0.49 ± 0.02 s⁻¹
- kcat/Km [2]: 5500 M⁻¹ s⁻¹

B1: EcAPRT (Escherichia coli K-12) (protein)
chain: MTATAQQLEYLKNSIKSIQDYPKPGILFRDVTSLLEDPKAYALSIDLLVERYKNAGITKVVGTEARGFLFGAPVALGLGVGFVPVRKPGKLPRETISETYDLEYGTDQLEIHVDAIKPGDKVLVVDDLLATGGTIEATVKLIRRLGGEVADAAFIINLFDLGGEQRLEKQGITSYSLVPFPGH
notes: N-terminal 6-His tag kept; expressed in E. coli BL21(DE3)
- Km [3]: 46.4 ± 9.0 µM
- kcat [3]: 15.9 ± 1.3 s⁻¹
- Km (purified protein): 9.6 ± 2.5 µM
- kcat (purified protein): 27.3 ± 1.9 s⁻¹

Continued, values first:

- Km (ScAPRT; 500 μM PRPP): 2.8 ± 0.6 µM
- Km (NucV; 500 μM PRPP): 6.8 ± 1.4 µM
Molecule: Nc1ncnc2nc[nH]c12 [compound 3, adenine]

- Km (ScAPRT; 500 μM adenine): 9.8 ± 2 µM
- Km (NucV; 500 μM adenine): 21.4 ± 3 µM
Molecule: O=P(O)(O)OC[C@H]1O[C@H](OP(=O)(O)OP(=O)(O)O)[C@H](O)[C@@H]1O [compound 5, 5-phospho-α-D-ribose-1-diphosphate]
